The record followed here is PMC10680758.

In this data set the target is T1, eIF4G (unlabeled) (Saccharomyces cerevisiae, UniProt P39935 1-952).
T1 sequence: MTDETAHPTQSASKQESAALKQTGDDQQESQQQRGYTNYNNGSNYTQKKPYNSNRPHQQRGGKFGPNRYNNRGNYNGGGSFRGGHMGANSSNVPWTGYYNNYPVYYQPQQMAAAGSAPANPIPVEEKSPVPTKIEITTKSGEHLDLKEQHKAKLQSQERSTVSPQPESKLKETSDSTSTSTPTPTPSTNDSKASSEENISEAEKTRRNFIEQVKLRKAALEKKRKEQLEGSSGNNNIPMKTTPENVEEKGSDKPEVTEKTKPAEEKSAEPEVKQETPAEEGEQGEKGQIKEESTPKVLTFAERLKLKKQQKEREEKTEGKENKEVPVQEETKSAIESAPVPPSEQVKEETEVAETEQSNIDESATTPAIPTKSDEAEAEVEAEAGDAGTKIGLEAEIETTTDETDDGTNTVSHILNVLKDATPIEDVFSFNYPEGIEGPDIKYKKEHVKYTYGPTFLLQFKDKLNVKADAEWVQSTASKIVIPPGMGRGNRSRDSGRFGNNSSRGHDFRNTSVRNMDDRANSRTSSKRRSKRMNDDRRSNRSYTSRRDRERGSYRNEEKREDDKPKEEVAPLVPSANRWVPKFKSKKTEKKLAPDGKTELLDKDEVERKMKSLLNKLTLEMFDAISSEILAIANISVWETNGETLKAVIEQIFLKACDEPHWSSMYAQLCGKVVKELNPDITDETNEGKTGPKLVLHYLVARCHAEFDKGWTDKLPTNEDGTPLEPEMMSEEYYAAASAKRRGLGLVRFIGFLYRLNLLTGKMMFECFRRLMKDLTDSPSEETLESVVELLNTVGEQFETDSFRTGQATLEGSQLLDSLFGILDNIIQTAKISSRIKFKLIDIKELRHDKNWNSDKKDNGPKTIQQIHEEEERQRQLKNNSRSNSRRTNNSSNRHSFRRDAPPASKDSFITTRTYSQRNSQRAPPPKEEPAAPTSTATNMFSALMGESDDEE
The experiment in a line: fluorescence anisotropy. On the technique in general: In fluorescence polarisation assays a small probe gives low polarisation when free and higher when bound to something large.

B1: rpl41a 51mer-FAM (ssRNA)
RNA: GGAGACCACAUCGAUUCAAUCGAAAUGAGAGCCAAGUGGAGAAAGAAGAGA
As for B1, the binding result was “binds”.
